Test results: patent US20240092920A1 (KEYMED BIOSCIENCES, published 2024)

T1: hIL-4Rα, full length, on stably transfected HEK293 cells (human, UniProt P24394 26-825)
T1 construct: whole, on cells; also called HEK293-hIL-4Rα
T1 sequence (looked up): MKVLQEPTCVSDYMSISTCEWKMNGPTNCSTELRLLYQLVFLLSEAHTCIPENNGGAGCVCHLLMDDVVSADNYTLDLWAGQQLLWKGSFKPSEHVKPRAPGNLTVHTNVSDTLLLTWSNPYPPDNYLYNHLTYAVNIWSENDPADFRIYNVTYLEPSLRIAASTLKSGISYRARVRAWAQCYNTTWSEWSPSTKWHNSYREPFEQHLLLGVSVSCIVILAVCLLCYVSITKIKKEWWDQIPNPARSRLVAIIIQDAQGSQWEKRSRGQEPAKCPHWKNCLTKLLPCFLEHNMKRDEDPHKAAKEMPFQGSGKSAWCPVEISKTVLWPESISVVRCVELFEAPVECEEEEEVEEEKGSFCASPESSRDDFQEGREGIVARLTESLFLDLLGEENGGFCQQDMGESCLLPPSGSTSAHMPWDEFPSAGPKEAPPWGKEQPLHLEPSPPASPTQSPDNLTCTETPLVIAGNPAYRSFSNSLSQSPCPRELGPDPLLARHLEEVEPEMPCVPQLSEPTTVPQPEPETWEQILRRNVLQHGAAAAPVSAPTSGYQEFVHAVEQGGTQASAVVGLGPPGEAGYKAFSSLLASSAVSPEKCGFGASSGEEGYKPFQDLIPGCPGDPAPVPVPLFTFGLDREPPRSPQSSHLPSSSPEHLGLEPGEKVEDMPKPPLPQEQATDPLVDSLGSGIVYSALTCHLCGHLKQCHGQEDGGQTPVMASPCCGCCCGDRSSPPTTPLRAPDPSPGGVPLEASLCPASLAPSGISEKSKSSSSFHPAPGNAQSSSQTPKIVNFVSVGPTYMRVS

T2: recombinant protein of human IL-4Rα extracellular region (human, UniProt P24394 26-232)
T2 construct: range 26-232; Made in HEK293-6E cells, purified on nickel chelate; Used biotin-labeled on SA probes in the Fortebio assays and unlabeled as ELISA coat; also called hIL-4Rα; IL-4Rα recombinant protein
T2 sequence: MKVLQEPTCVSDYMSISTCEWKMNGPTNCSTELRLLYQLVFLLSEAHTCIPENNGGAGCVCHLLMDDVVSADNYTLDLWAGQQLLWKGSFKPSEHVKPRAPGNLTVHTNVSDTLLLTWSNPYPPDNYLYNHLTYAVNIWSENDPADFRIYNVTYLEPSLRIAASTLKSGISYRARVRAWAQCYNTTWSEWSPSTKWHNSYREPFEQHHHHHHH

T3: recombinant protein of cynomolgus IL-4Rα extracellular region (cynomolgus monkey)
T3 construct: also called cynoIL-4Rα; cynomolgus monkey IL-4Rα
T3 chain: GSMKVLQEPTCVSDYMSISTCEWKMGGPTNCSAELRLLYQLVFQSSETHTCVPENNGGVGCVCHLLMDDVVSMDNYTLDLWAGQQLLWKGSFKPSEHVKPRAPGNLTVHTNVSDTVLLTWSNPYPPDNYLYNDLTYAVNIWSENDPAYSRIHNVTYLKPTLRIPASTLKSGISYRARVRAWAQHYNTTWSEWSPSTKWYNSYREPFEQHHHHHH


Tests used:
[1] = biological target: T1, hIL-4Rα, full length, on stably …; assay: flow cytometry on 293-hIL-4Rα stably transfected cells, anti-human IgG Fab'2-AF647
Experimental: Every 1*10⁶ cells corresponds to 100 μl of 3% BSA/PBS solution, and the solution is blocked at 4° C. for 20 minutes. The prepared cells are added to a 96-well U-type plate at a volume of 100 μl/well, and centrifuged at 1100 rpm for 3 minutes, and the supernatant is discarded; and the primary antibody solution is added and incubated for 1 hour on ice. […] After incubation with the primary antibody solution, additional 0.5% BSA/PBS is added to a volume of […], centrifuged at 1100 rpm for 3 minutes, and the supernatant is discarded. 150 μl of 0.5% BSA/PBS is further added, centrifuged at 1100 rpm for 3 minutes, and the supernatant is discarded; before adding a secondary antibody anti-human IgG, Fab′2-AF647, same is diluted at 1:300 with 1% BSA/PBS. 40 μl of the secondary antibody solution is added to each well and incubated on ice for 45 minutes. After incubation with the secondary antibody solution, additional 0.5% BSA/PBS is added to a volume of 150 μl, centrifuged at 1100 rpm for 3 minutes, and the supernatant is discarded; 150 μl of 0.5% BSA/PBS is further added, centrifuged at 1100 rpm for 3 minutes, and the supernatant is discarded; 20-100 μl of PBS is added to resuspend the cells to 1*10⁶ cells per ml, and the obtained suspension is loaded onto a flow cytometer (I-Que screener). After opening the instrument and operating system according to the correct process, and setting the correct parameters, the cells are loaded to the test plate, and the fluorescent signal is detected, analysis is performed using Graph Pad Prism 5 software.

[2] = biological target: T2, recombinant protein of human IL-4Rα …; assay: ELISA on coated human hIL-4Rα (1 ug/ml), HRP-linked secondary antibody, OD450
Experimental: (§1) 1 ug/ml human hIL-4Rα, 10 ug/ml cynomolgus cynoIL-4Rα, 1 ug/ml mouse mIL-4Rα (Sino Biological, Cat: 80198-R08H) and 1 ug/ml rat-derived ratIL-4Rα (Sino Biological, Cat: 51180-MO8H) are diluted in 0.05 M carbonate coating buffer (pH 9.5) at 4° C. overnight. The solution in the wells is discarded the next day and the wells are washed 3 times with PBS washing buffer. Then PBS solution containing 2% BSA is added for blocking for 2 hours. After washing 3 times with PBS washing buffer, 100 ul of humanized candidate antibodies at different diluted concentrations is added, incubated for 1 h at room temperature, and then washed 3 times with PBS washing buffer; the HRP cross-linked antibody (Jackson Immuno Research) is diluted at 1:10000 with PBS washing buffer and incubated for 1 hour at room temperature. After washing 3 times with PBS washing buffer, 100 ul of TMB substrate solution is added to develop color, and after reaction at room temperature for 10 minutes; the reaction is stopped by the addition of 50 ul of 0.5 M concentrated sulfuric acid solution and the absorbance at 450 nm is read.

[3] = biological target: T3, recombinant protein of cynomolgus …; assay: ELISA on coated cynomolgus cynoIL-4Rα (10 ug/ml), HRP-linked secondary antibody, OD450
Experimental: as §1

[4] = biological target: T1, hIL-4Rα, full length, on stably …; assay: flow cytometry blocking assay on 293-hIL-4Rα stably transfected cells; blocked ligand: biotin-labeled IL-4 at 0.15 ug/ml, SA-PE
Experimental: Every 1*10⁶ cells corresponds to 100 μl of 3% BSA/PBS solution, and the solution is blocked at 4° C. for 20 minutes. The prepared cells are added to a 96-well U-type plate at a volume of 100 μl/well, and centrifuged at 1100 rpm for 3 minutes, and the supernatant is discarded; and the primary antibody solution is added and incubated for 1 hour on ice. Purified candidate antibodies are made into 5 concentration series with a starting concentration of 100 nM, and diluted according to a series of 1:5. After incubation with the primary antibody solution, additional 0.5% BSA/PBS is added to a volume of 150 μl, centrifuged at 1100 rpm for 3 minutes, and the supernatant is discarded. 150 μl of 0.5% BSA/PBS is further added, centrifuged at 1100 rpm for 3 minutes, and the supernatant is discarded; biotin-labeled IL-4 at a final concentration of 0.15 ug/ml is added and incubated on ice for 45 minutes. The secondary antibody SA-PE is diluted at 1:300 with 1% BSA/PBS; 40 μl of the secondary antibody solution is added to each well and incubated on ice for 45 minutes. After incubation with the secondary antibody solution, additional 0.5% BSA/PBS is added to a volume of 150 μl, centrifuged at 1100 rpm for 3 minutes, and the supernatant is discarded; 150 μl of 0.5% BSA/PBS is further added, centrifuged at 1100 rpm for 3 minutes, and the supernatant is discarded. 20-100 μl of PBS is added to resuspend the cells to 1*10⁶ cells per ml, and the obtained suspension is loaded onto a flow cytometer (I-Que screener). After opening the instrument and operating system according to the correct process, and setting the correct parameters, the cells are loaded to the test plate, and the fluorescent signal is detected, analysis is performed using Graph Pad Prism 5 software.

[5] = biological target: T2, recombinant protein of human IL-4Rα …; assay: BLI (Fortebio), biotin-labeled hIL-4Rα on SA probe, antibody 50-3.125 ug/ml
Experimental: PBS is added to any column of the 96-well plate, 100 ul/well, and the 96-well plate is placed in the probe holder cassette. When taking the probe, be careful to completely hang it on the holder to prevent the probe from touching the holder. The immobilized biotin-labeled hIL-4Rα is diluted to 5 ug/ml with PBS; a new 96-well plate is taken, and the diluted immobilized material is added column by column, 100 ul/well. […] A new 96-well plate is taken, and PBS is added to columns 1 and 2, 100 ul/well (the same buffer for both baseline and dissociation); the diluted immobilized material is added to column 3; the analyte diluted according to the series is added to column 4; 10 mM HCl (pH 1.9) is added to column 11; and PBS is added to column 12. The SA probe binds very strongly to the immobilized biotin material. When regenerated, the immobilized material is still bound to the probe, so it can be reused after immobilizing only once. Then the experimental method is set up in the Fortebio software, and then the experimental program is run for detection.

Binder	EC50 (read off the curve) [1]	EC50 [2]	EC50 [3]	IC50 (read off the curve) [4]	Kd [5]	koff [5]	kon [5]
1021/1013 (antibody, IgG1, V domains shown, Humanized candidate antibody; also called 1021/1013-IgG; VH1021 with VL1013) VH: EVQLVESGGGLVKPGGSLRLSCAASGFTFSRYAMSWVRQAPGKGLEWVSTISSGGSYTNYADSVKGRFTISRDNVKNTLYLQMNSLRAEDTAVYYCARATARATEFAYWGQGTLVTVSS VL: DIQMTQSPSSLSASVGDRVTITCQASQDISNYLNWYQQKPGKAPKLLIYYTSRLHSGVPSRFSGSGSGTDYTLTISSLQPEDFATYFCQQGNTLPLTFGGGTKVEIK	~0.03 nM	0.064 nM	1.4 nM				
1022/1013 (antibody, V domains shown, Humanized candidate antibody; same remark on Fab/IgG wording as for 1021/1013; also called 1022/1013-IgG; VH1022 with VL1013) VH: EVQLLESGGGLVQPGGSLRLSCAASGFTFSRYAMSWVRQAPGKGLEWVSTISSGGSYTNYADSVKGRFTISRDNVKNTLYLQMNSLRAEDTAVYYCARATARATEFAYWGQGTLVTVSS VL: DIQMTQSPSSLSASVGDRVTITCQASQDISNYLNWYQQKPGKAPKLLIYYTSRLHSGVPSRFSGSGSGTDYTLTISSLQPEDFATYFCQQGNTLPLTFGGGTKVEIK		0.067 nM	1.16 nM	~0.09 nM			
Clone 36F4 (antibody, V domains shown, Chimeric IgG: mouse variable regions on human heavy and light chain constant regions (section 6)) VH: QVQLQQSGAELVKPGASVKMSCKASVNIFTGYNMHWVKQTPGQGLEWIGGLHPGNGDTSYNQKFKDKATLTADRSSNTAYMQLSSLTSEDSAVYYCALTTAGRAWFAYWGQGTLVTVSA VL: DIKMTQSTSSLSASLGDRVTISCRASQDISNYLNWYQQKPDGTVKLLIYYTSRLHSGVPSRFSGSGSGTDYSLTISNLEQEDIATYFCQQGNTLPPWTFGGGTKLEIK					1.8 nM	9.37e-05 s⁻¹	50900 M⁻¹ s⁻¹
Clone 1D8 (antibody, V domains shown, Chimeric IgG: mouse variable regions on human heavy and light chain constant regions (section 6)) VH: QVQLQQSGAELVKPGASVKMSCTATGNIFTGYNMHWIKQTPGQGLEWIGGLHPGNGDTSYNQKFKGRATLTADKSSSSAYMQLSSLTSEDSAVYYCALTTAGRAWFAYWGQGTLVTVSA VL: DIQMTQTTSSLSASLGDRVTISCRASQDISNYLNWYQQKPDGTVKLLIYYTSRLHSGVPSRFSGSGSGTDYSLTISNLEQEDIATYFCQQGNTLHTFGGGTKLEIK					8.06 nM	0.000566 s⁻¹	70100 M⁻¹ s⁻¹
Clone 35D5 (antibody, V domains shown, Chimeric IgG: mouse variable regions on human heavy and light chain constant regions (section 6)) VH: QVQLKQSGAELVKPGASVKMSCKASVNTFTGYNMHWVKQTPGQGLEWIGGLHPGNGDTSYNQKFKGKATLTADKSSNTAYMQLSSLTSEDSAVYYCALTTAGRAWFAYWGQGTLVTVSA VL: DIQMTQSTSSLSASLGDRVTISCRASQDISNYLNWYQQKPDGTVKLLIYYTSRLHSGVPSRFSGSGSGTDYSLTISNLEQEDIATYFCQQGNTLPWTFGGGTKLEIK					1.3 nM	5.05e-05 s⁻¹	38700 M⁻¹ s⁻¹

The next lines start with the values.

EC50 (read off the curve) [1]	EC50 [2]	EC50 [3]	IC50 (read off the curve) [4]	Kd [5]	koff [5]	kon [5]	Binder
				< 0.001 nM	< 1e-07 s⁻¹	24700 M⁻¹ s⁻¹	Clone 35A7 (antibody, V domains shown, Chimeric IgG (section 6)) VH: QVQLKQSGAELVKPGASVKMSCTASGNIFSGYNMHWIKQTPGQGLEWIGGLHPGNGDTSYNQKFKGKATLTADKSSNTAYMQLSSLTSEDSAVYYCALTTAGRAWFAYWGQGTLVTVSA VL: DIQMNQSTSSLSASLGDRVTISCRASQDISNYLNWYQQKPDGTIKLLIYYTSRLYSGVPSRFSGSGSGTDYSLTISNLEEEDIATYFCQQGNTIPYTFGGGTKLEIK
				0.94 nM	2.37e-05 s⁻¹	25300 M⁻¹ s⁻¹	Clone 24G10 (antibody, V domains shown, Chimeric IgG: mouse variable regions on human heavy and light chain constant regions (section 6)) VH: EVKLVESGGGLVKPGGSLKLSCAASGFTFSRYAMSWVRQTPEKRLEWVATISSGGSYTNYSDSVKGRFTISRDNVKNTLYLQMSSLKSEDSAMYYCARATARATEFAYWGQGTLVTVSA VL: DIQMTQSTSSLSASLGDRVTISCRASQDISNYLNWYQQKPDGTVKLLIYYTSRLYSGVPSRFSGSGSGTDYSLTISNLEQEDIATYFCQQGNTLPPTFGGGTKLEI
